Measurements reported in patent publication US20200164068A1, “MODULATORS OF TUMOR IMMUNE RESISTANCE FOR THE TREATMENT OF CANCER” (DEUTSCHES KREBSFORSCHUNGSZENTRUM STIFTUNG DES ÖFFENTLICHEN …, priority 2016, published 2020).

B1: CCR9-specific shRNA (nucleic acid)
DNA: ACCGGGCCAGTGGAGGTCTTTGTTCTGTTAATATTCATAGCAGAACAAGGACCTTCACTGGCTTTT

Key:
MCF7 cells = experiment: Chromium-release cytotoxicity assay, MCF7 cells and survivin-specific CTL; format: cell-based; details: MCF7 cells pre-treated with 250 ng/ml PTX for 1 h, compared to CCR9 gene knockdown
Procedure: (§1) Tumor cells were transfected with the described siRNAs using RNAiMAX or with pCMV6-AC-His-CCR9 encoding vector and empty control vector (OriGene, Rockville, USA) using TransIT-LT1. 72 h later, transfected cells were harvested for chromium-release cytotoxicity assay as detailed in Supplementary Methods. For CCR9 blockade using pertussis toxin (PTX), […] tumor cells were incubated with 250 ng/ml of PTX (Sigma Aldrich) for 1 h at 37° C. before labeling with radioactive chromium.

CCR9+ tumor cells = experiment: Transwell migration assay toward CCL25; format: cell-based
M579-A2 tumor cells = experiment: Chromium-release cytotoxicity assay, M579-A2 melanoma cells and TIL 209; format: cell-based, human; details: stable CCR9 knockdown M579-A2 versus shControl
From the text: MCF7, MDA-MB-231 (breast cancer), and PANC-1 pancreatic cancer cells were acquired from American Type Cell Culture (Wesel, Germany). MCF7luc cells were generated by electroporation with pEGFP-Luc plasmid and expansion of sorted GFP+ clones in selection medium containing […] G418 (Gibco, UK). M579-A2 melanoma culture was established from a patient and stably transfected with HLA-A2 expression construct as described before (Machlenkin et al, 2008). For stable CCR9 knockdown, lentiviral particles were produced using the pRSI9-U6-TagRFP-2APuro lentiviral expression vector (Cellecta) that contained either the CCR9-specific shRNA hairpin ([…]: SEQ ID NO. 5) or control nontargeting shRNA. Viruses were packaged using the psPAX2 and pMD2.G packaging plasmids (Addgene), and tumor cell lines were transduced with the viral particles as per the manufacturer's protocol.
as §1

M579-A2 tumors = experiment: In vivo M579-A2 tumor growth in NSG mice with adoptive TIL 209 transfer
Procedure: Appropriate approval for animal work was obtained from the regulatory authorities (Regierungsprasidium, Karlsruhe) before the start of the experiment. Four- to six-week-old female NSG mice were ordered from the Animal Core Facility at DKFZ, Heidelberg. Mice were subcutaneously injected with 5×10^5 cells (in 100 μl of matrigel per injection) of each CCR9-M579-A2 (transduced with CCR9-specific shRNA) and CCR9+M579-A2 (transduced with non-targeting control shRNA) cell lines in the left and the right flank, respectively. Following this, at Day 2 and Day 9, 7 out of the 10 tumor-bearing mice received adoptive transfer of expanded TIL 209 cells intravenously into the tail vein (1×10^7 cells/100 μl PBS/mouse). The remaining three mice were injected with PBS alone to assess tumor growth in the absence of adoptive TIL transfer. Tumor measurements were performed using a digital caliper (Carl Roth) at the indicated time points, and tumor volume was measured using the formula: volume=height*width*width*(n/3).
Differences between test and control groups were analyzed by two-sided Student's t-test. In all statistical tests, a P-value <0.05 was considered significant. Statistical difference between the tumor growth curves in vivo was assessed using the unpaired one-sided Mann-Whitney U-test.

CCL25 = experiment: ELISA of CCL25 levels in tumor cell lysates; format: cell-based; details: stable knockdown
HLA-A2 = experiment: Surface HLA-A2 expression on M579-A2 cells; format: cell-based, human; details: M579-A2 upon CCR9 knockdown

Row | Molecule | Tumor lysis by antigen-specific T cells (MCF7 cells) | Migration of CCR9+ tumor cells toward CCL25 (CCR9+ tumor cells) | Immune lysis by tumor-infiltrating lymphocytes (TIL 209) (M579-A2 tumor cells) | Tumor growth kinetic without T cell transfer (M579-A2 tumors; CCR9- versus CCR9+ M579-A2 tumors in NSG mice given PBS alone) | Tumor growth in response to adoptive T cell transfer (M579-A2 tumors; CCR9- versus CCR9+ M579-A2 tumors s.c. in NSG mice, TIL 209 i.v. at Day 2 and Day 9) | CCL25 production by MCF7 breast cancer cells (CCL25) | Surface HLA-A2 expression (HLA-A2)
1 | pertussis toxin | did not elicit elevated tumor lysis | inhibited the migration | – | – | – | – | –
2 | B1 | – | – | more susceptible to immune lysis | No difference | grew significantly slower | did not affect | no significant difference
